Experimental data published in paper PMC2912409.

Experiments:
Experiment in all cases: ITC
[1] = target: DB_S201A (human, UniProt P03372 176-250, S201A)
[2] = target: DB_E203A (human, UniProt P03372 176-250, E203A)
[3] = target: DB_S193A (human, UniProt P03372 176-250, S193A)
[4] = target: DB_H196A (human, UniProt P03372 176-250, H196A)
[5] = target: DB_AA (human, UniProt P03372 176-250, H196A;E203A)
[6] = target: DB_Y197A (human, UniProt P03372 176-250, Y197A)
[7] = target: DB_K206A (human, UniProt P03372 176-250, K206A)
[8] = target: DB_K210A (human, UniProt P03372 176-250, K210A)
[9] = target: DB_D190A (human, UniProt P03372 176-250, D190A)
[10] = target: DB_R211A (human, UniProt P03372 176-250, R211A)
Sequence of DB_R211A (P03372 176-250 R211A): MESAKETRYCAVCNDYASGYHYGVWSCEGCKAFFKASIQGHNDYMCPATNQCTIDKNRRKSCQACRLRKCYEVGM

Sequence of DB_AA (P03372 176-250 H196A/E203A): as the sequence (P03372 176-250 R211A) above, with H21A, E28A, A36R counted along it
Sequence of DB_D190A (P03372 176-250 D190A): as the sequence (P03372 176-250 R211A) above, with D15A, A36R counted along it
Sequence of DB_S193A (P03372 176-250 S193A): as the sequence (P03372 176-250 R211A) above, with S18A, A36R counted along it
Sequence of DB_Y197A (P03372 176-250 Y197A): as the sequence (P03372 176-250 R211A) above, with Y22A, A36R counted along it
Sequence of DB_K206A (P03372 176-250 K206A): as the sequence (P03372 176-250 R211A) above, with K31A, A36R counted along it
Sequence of DB_S201A (P03372 176-250 S201A): as the sequence (P03372 176-250 R211A) above, with S26A, A36R counted along it
Sequence of DB_E203A (P03372 176-250 E203A): as the sequence (P03372 176-250 R211A) above, with E28A, A36R counted along it
Sequence of DB_H196A (P03372 176-250 H196A): as the sequence (P03372 176-250 R211A) above, with H21A, A36R counted along it
Sequence of DB_K210A (P03372 176-250 K210A): as the sequence (P03372 176-250 R211A) above, with K35A, A36R counted along it

B1: ERE duplex (dsDNA)
DNA 1: CCCAGGTCACAGTGACCTGCG
DNA 2: CGCAGGTCACTGTGACCTGGG
[1]
  Kd: 119 ± 9 nM
[2]
  Kd: 172 ± 48 nM
[3]
  Kd: 102 ± 10 nM
[4]
  Kd: 190 ± 24 nM
[5]
  Kd: 387 ± 90 nM
[6]
  Kd: 316 ± 7 nM
[7]
  Kd: 313 ± 6 nM
[8]
  Kd: 326 ± 11 nM
[9]
  Kd: 67 ± 6 nM
[10]
  Kd: 745 ± 76 nM
